# Test results reported in patent US20160177307.
# What was measured:
# Assay in all cases: filter
# [1] = system: T1, VEGF-121 (Homo sapiens), P15692-9
# T1 sequence: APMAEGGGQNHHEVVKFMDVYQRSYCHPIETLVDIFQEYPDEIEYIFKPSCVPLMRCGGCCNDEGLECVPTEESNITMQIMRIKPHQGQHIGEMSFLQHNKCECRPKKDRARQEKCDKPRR
# [2] = system: T2, VEGF-164 (Rattus norvegicus), P16612-2; settings: P=Nap-dU
# T2 sequence: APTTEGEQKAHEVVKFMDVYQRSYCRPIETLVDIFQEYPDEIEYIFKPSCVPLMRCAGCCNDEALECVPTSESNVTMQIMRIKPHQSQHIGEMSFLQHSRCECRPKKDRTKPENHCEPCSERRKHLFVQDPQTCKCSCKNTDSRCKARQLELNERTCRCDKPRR
# [3] = system: T3, VEGF-165 (Homo sapiens), P15692-4
# T3 sequence: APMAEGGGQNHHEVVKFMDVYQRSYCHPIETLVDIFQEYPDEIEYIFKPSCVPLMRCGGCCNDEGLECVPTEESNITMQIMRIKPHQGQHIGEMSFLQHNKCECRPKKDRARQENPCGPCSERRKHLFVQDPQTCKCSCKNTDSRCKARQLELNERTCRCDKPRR
# [4] = biological target: PDGF-BB (platelet-derived growth factor BB) (Homo sapiens) (UniProt P01127)
# Chain of PDGF-BB (platelet-derived growth factor BB) (Homo sapiens) (P01127 82-190): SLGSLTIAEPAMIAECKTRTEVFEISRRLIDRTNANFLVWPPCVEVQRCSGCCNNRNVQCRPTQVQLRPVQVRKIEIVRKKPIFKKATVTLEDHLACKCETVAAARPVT
# [5] = Nap-dU, Bn-dU, MBn-dU, 2'-OMe, C3, 1 Heg between parts
# [6] = Nap-dU, Bn-dU, MBn-dU, 2'-OMe, C3, 3 Heg between parts
# [7] = Nap-dU, Bn-dU, MBn-dU, 2'-OMe, C3, 6 Heg between parts
# [8] = Nap-dU, Bn-dU, MBn-dU, 2'-OMe, C3, 4 Heg between parts
# [9] = Nap-dU, Bn-dU, MBn-dU, 2'-OMe, C3, 5 Heg between parts
# [10] = Bn-dU, MBn-dU, Nap-dU, 2'-OMe, C3, 5 Heg between parts
# [11] = Bn-dU, MBn-dU, Nap-dU, 2'-OMe, C3, 4 Heg between parts
# [12] = PDGF-VEGF, no Heg linker, NapdU, BndU
sequence,measurement,setting,value
CGTTCAAGTGCTTGTAGGATTTAAATGGA [4867-31_60],Kd,[1]; NapdU at P,2.2 nM
same,Kd,[2],1.4 nM
same,Kd,[3]; NapdU at P,0.61 nM
TCAGCCGTTCAAGTGCTTGTAGGATTTAAATGGAA [4867-31_35],Kd,[2],0.05 nM
same,Kd,[3]; P=Nap-dU,0.11 nM
CCGTTCAAGTGCTTGTAGGATTTAAATGGTTACGTTACCGCGTTTATAGCG [4149-8_408],Kd,[1]; [5],0.044 nM
same,Kd,[4]; [5],0.043 nM
same,Kd,[3]; [5],0.041 nM
CGACAGCATGTATGCACATCTCCGTTCAAGTGCTTGTAGGATTTAAATGG [5169-4_103],Kd,"[1]; PDGF-2Heg-VEGF, NapdU, 2'-OMe",0.12 nM
same,Kd,"[4]; PDGF-2Heg-VEGF, NapdU, 2'-OMe",0.0061 nM
TCAATCAGCCGTTCAAGTGCTTGTAGGATTTAAATG [4867-31_24],Kd,[1]; NapdU at P,36 nM
same,Kd,[2],4.2 nM
same,Kd,[3]; NapdU at P,2.8 nM
CAATCAGCCGTTCAAGTGCTTGTAGGATTTAAATGGAA [4867-31_32],Kd,[1]; P=Nap-dU,0.51 nM
same,Kd,[2],0.06 nM
same,Kd,[3]; P=Nap-dU,0.1 nM
CCGTTCAAGTGCTTGTAGGATTTAAATGGTTACGTTACCGCGTTTATAGCG [4149-8_410],Kd,[1]; [6],0.026 nM
same,Kd,[4]; [6],0.02 nM
same,Kd,[3]; [6],0.033 nM
AGCCGTTCAAGTGCTTGTAGGATTTAAATGGAA [4867-31_37],Kd,[1]; P=Nap-dU,0.21 nM
same,Kd,[2],0.04 nM
same,Kd,[3]; P=Nap-dU,0.092 nM
CCGTTCAAGTGCTTGTAGGATTTAAATGGTTACGTTACCGCGTTTATAGCG [4149-8_413],Kd,[1]; [7],0.04 nM
same,Kd,[4]; [7],0.01 nM
same,Kd,[3]; [7],0.063 nM
CCGTTCAAGTGCTTGTAGGATTTAAATGGCGACAGCATGTATGCACATCT [5169-4_95],Kd,"[1]; VEGF-4Heg-PDGF, NapdU, 2'-OMe",0.043 nM
same,Kd,"[4]; VEGF-4Heg-PDGF, NapdU, 2'-OMe",0.0012 nM
CCGTTCAAGTGCTTGTAGGATTTAAATGGA [4867-31_59],Kd,[1]; NapdU at P,0.14 nM
same,Kd,[2],0.2 nM
same,Kd,[3]; NapdU at P,0.16 nM
ATCAGCCGTTCAAGTGCTTGTAGGATTTAAATGGAA [4867-31_34],Kd,[1]; P=Nap-dU,0.47 nM
same,Kd,[2],0.05 nM
same,Kd,[3]; P=Nap-dU,0.35 nM
AGCCGTTCAAGTGCTTGTAGGATTTAAAT [4867-31_53],Kd,[1]; NapdU at P,19 nM
same,Kd,[3]; NapdU at P,3.2 nM
AGCCGTTCAAGTGCTTGTAGGATTTAAATG [4867-31_52],Kd,[1]; NapdU at P,2.8 nM
same,Kd,[2],0.58 nM
same,Kd,[3]; NapdU at P,0.17 nM
CCGTTCAAGTGCTTGTAGGATTTAAATGGTTACGTTACCGCGTTTATAGCG [4149-8_411],Kd,[1]; [8],0.02 nM
same,Kd,[4]; [8],0.0072 nM
same,Kd,[3]; [8],0.045 nM
CCGTTCAAGTGCTTGTAGGATTTAAATGGTTACGTTACCGCGTTTATAGCG [4149-8_412],Kd,[1]; [9],0.02 nM
same,Kd,[4]; [9],0.0086 nM
same,Kd,[3]; [9],0.045 nM
TCAATCAGCCGTTCAAGTGCTTGTAGGATTTAAAT [4867-31_25],Kd,[1]; NapdU at P,70 nM
same,Kd,[2],16 nM
same,Kd,[3]; NapdU at P,26 nM
CAGCCGTTCAAGTGCTTGTAGGATTTAAATGGAAT [4867-31_30],Kd,[1]; P=Nap-dU,1.4 nM
same,Kd,[2],0.15 nM
same,Kd,[3]; P=Nap-dU,0.2 nM
CAGCCGTTCAAGTGCTTGTAGGATTTAAATGGAA [4867-31_36],Kd,[1]; P=Nap-dU,0.39 nM
same,Kd,[2],0.06 nM
same,Kd,[3]; P=Nap-dU,0.11 nM
AGCCGTTCAAGTGCTTGTAGGATTTAAATGGAAT [4867-31_31],Kd,[1]; P=Nap-dU,1 nM
same,Kd,[2],0.12 nM
same,Kd,[3]; P=Nap-dU,0.17 nM
CAGCCGTTCAAGTGCTTGTAGGATTTAAATG [4867-31_45],Kd,[1]; NapdU at P,3.3 nM
same,Kd,[2],4.5 nM
same,Kd,[3]; NapdU at P,1.1 nM
CAGCCGTTCAAGTGCTTGTAGGATTTAAATGG [4867-31_44],Kd,[1]; NapdU at P,0.14 nM
same,Kd,[2],0.38 nM
same,Kd,[3]; NapdU at P,0.13 nM
CCGTTCAAGTGCTTGTAGGATTTAAATGGCGACAGCATGTATGCACATCT [5169-4_98],Kd,"[1]; VEGF-1Heg-PDGF, NapdU, 2'-OMe",0.14 nM
same,Kd,"[4]; VEGF-1Heg-PDGF, NapdU, 2'-OMe",0.0053 nM
TTACGTTACCGCGTTTATAGCGCCGTTCAAGTGCTTGTAGGATTTAAATGG [4149-8_416],Kd,[1]; [10],0.041 nM
same,Kd,[4]; [10],0.0089 nM
same,Kd,[3]; [10],0.03 nM
AATCAGCCGTTCAAGTGCTTGTAGGATTTAAATGGAA [4867-31_33],Kd,[1]; P=Nap-dU,0.55 nM
same,Kd,[2],0.04 nM
same,Kd,[3]; P=Nap-dU,0.11 nM
CGACAGCATGTATGCACATCTCCGTTCAAGTGCTTGTAGGATTTAAATGG [5169-4_102],Kd,"[1]; PDGF-3Heg-VEGF, NapdU, 2'-OMe",0.14 nM
same,Kd,"[4]; PDGF-3Heg-VEGF, NapdU, 2'-OMe",0.011 nM
TTACGTTACCGCGTTTATAGCGCCGTTCAAGTGCTTGTAGGATTTAAATGG [4149-8_415],Kd,[1]; [11],0.04 nM
same,Kd,[4]; [11],0.0081 nM
same,Kd,[3]; [11],0.03 nM
TTACGTTACACGCGTTTATAGCGCCGTTCAAGTGCTTTAGATTTAAATG [4149-8_317],Kd,[1]; [12],0.0809 nM
same,Kd,[4]; [12],0.0638 nM
